Experimental data: patent US20260159601A1 (Hoffmann-La Roche, published 2026)

Experiments:
[1] = molecular target: CD20 (species not stated, in-vitro-measured KD used in the cynomolgus monkey PK model); assay: in vitro measurement, method not stated; value used in the PK model
[2] = molecular target: human transferrin receptor 1 on MDCKII cells transfected with huTfR1 (human, UniProt P02786 1-760); assay: cell-based or functional assay
[3] = molecular target: T1, human CD20 (human, UniProt P11836 1-297); assay: flow cytometry on a human B-cell lymphoma cell line, 30 min at 4 C, detection with FITC-labeled F(ab)'2 goat anti-human Fc-gamma-specific antibody, median fluorescence intensity
T1 construct: On a human B-cell lymphoma cell line, human tonsil-derived B-cells and human PBMC B-cells; also called huCD20; MS4A1
T1 sequence: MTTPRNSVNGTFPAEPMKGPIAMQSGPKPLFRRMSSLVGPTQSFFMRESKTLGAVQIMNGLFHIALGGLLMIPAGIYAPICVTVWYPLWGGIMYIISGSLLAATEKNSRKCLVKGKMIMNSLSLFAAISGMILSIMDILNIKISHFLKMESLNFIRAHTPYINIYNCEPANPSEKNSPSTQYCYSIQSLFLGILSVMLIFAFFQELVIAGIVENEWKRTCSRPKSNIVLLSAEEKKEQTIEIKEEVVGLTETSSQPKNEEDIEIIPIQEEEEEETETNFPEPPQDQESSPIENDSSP

[4] = molecular target: T2, cynomolgus monkey transferrin receptor 1 (cynomolgus monkey, UniProt H9EXL1 89-760 (rhesus entry)); assay: surface plasmon resonance at 37° C.; cynomolgus TfR1; SPR at 37° C.
T2 construct: also called cyTfR1
T2 sequence (chain, as listed by the source): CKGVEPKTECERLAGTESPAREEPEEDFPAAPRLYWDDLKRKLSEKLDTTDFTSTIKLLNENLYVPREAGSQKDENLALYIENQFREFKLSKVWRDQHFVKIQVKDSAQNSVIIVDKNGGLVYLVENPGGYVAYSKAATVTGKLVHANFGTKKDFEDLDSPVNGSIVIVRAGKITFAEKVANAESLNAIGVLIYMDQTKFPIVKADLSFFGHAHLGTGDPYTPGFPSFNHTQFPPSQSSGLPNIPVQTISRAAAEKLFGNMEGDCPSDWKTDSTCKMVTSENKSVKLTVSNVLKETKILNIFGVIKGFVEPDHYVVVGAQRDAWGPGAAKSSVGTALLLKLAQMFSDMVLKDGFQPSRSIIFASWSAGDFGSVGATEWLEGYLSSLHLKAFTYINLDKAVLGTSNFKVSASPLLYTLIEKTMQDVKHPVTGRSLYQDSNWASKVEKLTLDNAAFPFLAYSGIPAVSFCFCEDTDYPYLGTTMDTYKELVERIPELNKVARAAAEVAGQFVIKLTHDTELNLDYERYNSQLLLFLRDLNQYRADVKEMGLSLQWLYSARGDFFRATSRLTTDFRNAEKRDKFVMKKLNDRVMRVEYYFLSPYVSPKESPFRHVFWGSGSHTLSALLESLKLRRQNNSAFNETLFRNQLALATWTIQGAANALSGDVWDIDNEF

[5] = molecular target: T1, human CD20; assay: cell-based or functional assay

human transferrin receptor 1 on MDCKII cells transfected with huTfR1, sequence (P02786 whole entry): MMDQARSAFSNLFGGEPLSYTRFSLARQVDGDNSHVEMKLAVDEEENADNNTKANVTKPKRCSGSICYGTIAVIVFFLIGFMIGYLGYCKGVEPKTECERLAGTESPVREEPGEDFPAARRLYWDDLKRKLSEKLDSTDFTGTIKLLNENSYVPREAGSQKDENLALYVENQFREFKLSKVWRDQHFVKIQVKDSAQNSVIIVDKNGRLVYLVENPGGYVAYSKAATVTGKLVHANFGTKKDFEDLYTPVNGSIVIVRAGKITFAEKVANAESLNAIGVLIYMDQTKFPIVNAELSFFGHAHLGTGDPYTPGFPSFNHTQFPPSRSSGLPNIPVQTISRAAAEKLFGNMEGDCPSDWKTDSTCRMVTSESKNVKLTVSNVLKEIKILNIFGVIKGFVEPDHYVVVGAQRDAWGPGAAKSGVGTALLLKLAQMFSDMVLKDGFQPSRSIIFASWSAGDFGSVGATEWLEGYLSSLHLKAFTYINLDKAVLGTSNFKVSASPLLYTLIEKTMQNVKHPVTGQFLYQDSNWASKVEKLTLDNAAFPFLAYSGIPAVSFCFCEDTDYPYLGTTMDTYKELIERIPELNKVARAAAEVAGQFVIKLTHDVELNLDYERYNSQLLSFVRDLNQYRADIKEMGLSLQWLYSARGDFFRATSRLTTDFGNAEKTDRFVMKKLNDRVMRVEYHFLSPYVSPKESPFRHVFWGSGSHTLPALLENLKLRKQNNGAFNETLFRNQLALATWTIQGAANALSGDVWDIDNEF

B1: RG6035 (bispecific antibody, human IgG1, kappa, L234A L235A)
light 1: DIVMTQTPLSLPVTPGEPASISCRSSKSLLHSNGITYLYWYLQKPGQSPQLLIYQMSNLVSGVPDRFSGSGSGTDFTLKISRVEAEDVGVYYCAQNLELPYTFGGGTKVEIKRTVAAPSVFIFPPSDRKLKSGTASVVCLLNNFYPREAKVQWKVDNALQSGNSQESVTEQDSKDSTYSLSSTLTLSKADYEKHKVYACEVTHQGLSSPVTKSFNRGEC
heavy 1: VQLVQSGAEVKKPGSSVKVSCKASGYAFSYSWINWVRQAPGQGLEWMGRIFPGDGDTDYNGKFKGRVTITADKSTSTAYMELSSLRSEDTAVYYCARNVFDGYWLVYWGQGTLVTVSSASTKGPSVFPLAPSSKSTSGGTAALGCLVEDYFPEPVTVSWNSGALTSGVHTFPAVLQSSGLYSLSSVVTVPSSSLGTQTYICNVNHKPSNTKVDEKVEPKSCDKTHTCPPCPAPEAAGGPSVFLFPPKPKDTLMISRTPEVTCVVVDVSHEDPEVKFNWYVDGVEVHNAKTKPREEQYNSTYRVVSVLTVLHQDWLNGKEYKCKVSNKALGAPIEKTISKAKGQPREPQVCTLPPSRDELTKNQVSLSCAVKGFYPSDIAVEWESNGQPENNYKTTPPVLDSDGSFFLVSKLTVDKSRWQQGNVFSCSVMHEALHNHYTQKSLSLSPG
light 2: AIQLTQSPSSLSASVGDRVTITCRASQSISSYLAWYQQKPGKAPKLLIYRASTLASGVPSRFSGSGSGTDFTLTISSLQPEDFATYYCQQNYASSNVDNTFGGGTKVEIKSSASTKGPSVFPLAPSSKSTSGGTAALGCLVKDYFPEPVTVSWNSGALTSGVHTFPAVLQSSGLYSLSSVVTVPSSSLGTQTYICNVNHKPSNTKVDKKVEPKSC
heavy 2: not shown
notes: human IgG1 Fc with L234A, L235A, P329G; also called RO7121932; BS-CD20
Kd [1]: 3.3 nM | intracellular uptake in MDCKII-huTfR cells against non-transfected MDCKII-parental cells, 30-minute pulse, IgG ELISA [2]: 30 fold | EC50 (read off the curve) [3]: ~3 nM | Kd [4]: 694 nM | EC50 of CD19+-B-cell depletion, ex vivo human tonsil-derived cells, average of three donors [5]: 0.4 nM | EC50 of CD19+-B-cell depletion, ex vivo human tonsil-derived cells, donor T1 [5]: 0.44 nM | EC50 of CD19+-B-cell depletion, ex vivo human tonsil-derived cells, donor T2 [5]: 0.2 nM | EC50 of CD19+-B-cell depletion, ex vivo human tonsil-derived cells, donor T3 [5]: 0.55 nM
